Assay: label from the status in PepcDB records
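Further: failed if final PepcDB status was selected cloned or expressed and not failed if soluble or beyond.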

Row | Sequence | protein production
1 | VQRPWLAPLPGAPMNACRLLLCFPYGGGGASAFNDLSRLADVGVATWAVKLPGREDRSMEAPVTRVANVIEAIVDALQSVGIPYAFYGHSFGAGLALDVAHALAERDRPLPTHLVLSGRMPPHTGYSPLLGAMDDNQLWQHVCSESLLPLPTDASCSFARHALGKLKADLALNAQLTYRFIRPLPVPLYVLNGQDDPLLELHRLDEWQRYTSTSFHSEYVPGGHFFFNINFQLLYLPLLTALD | not failed
2 | MVYVDPDRFDELVAEALDGIPEEFARAMRNVAVFVEDEPDDPELLGLYVGIPLTERTTAYGGVLPDRIIIYRNTICALCETESEVIDEVRKTVVHEIAHHFGIDDERLHELGY | not failed
3 | MLEKNKPENHATDKHGLLSAPIPETLRKMTVPMTMGMIAILMFNLVDTFFISLLGTHALAAISYTFPVTFAVNCITMGIGMGLSTNIGRLLGQGHAPQAARFTTHGLLLAVLLVAIASSIGFATIAPLFRFLGATDDLIPLIEQYMQVWYLTIPLLVIPMAGNSAIRATGDTKTPAKIMMLAGLINGMLDPLLIFGYGPFPELGIQGAAIASAFSWLGALCGSFYVLVKREKLLAQPQWASLKQDWQQTLKIGTPAALSNAMNPLSGAILMMLLSSHGTAAVAAYGAAQRIESILILVLMSLTSALTPFMAQNLGAKNPQRAFSGLFLSMRFAVVFQGFIFLMMVPLSIPLAALFSQEETVKNLLWHYLLVVPFSYGFQGIVMMLVSGLNAMHKPLRAFQWSFMRLFVFTLPAAWVGSQVYSIEGLFIGIALGNTLGGLLGYMFALRERKLTLIEQNSAS | failed
4 | MEIIIYIFVSIAIISLQAITPFVIRKSECFGVNVGERANRNAELTQLKKQYVGQVILWTSFVAIIGIALIQGFHSSENTQAGIFIASMFSQLIVSFIIYYRFHHTTLQWKRDKIEAGEISTNSIIMVDTSFHRRKMVISYTWFIVPLLIFIITLAITVVFYSTAPVDFPIHFDMSGTVTDTVAKSPRVVLLLPMMQLGMIALFIFINFVIARSKQTVENENPTDSLKRNMLFRQISSKAMLIMCTIMVIDFLIMQVVTLLALPAEWMMVTMIISVVLILFGTVLLAVKVGQGGSRLKFADQPDGVNKPIRDDDSFWKAGVIYFNRNDPALFVEKRFGIGWTINTARPVAWLSFVIIIAVIILISILF | failed
5 | RTRALYDLGRELASALTASQIIETAVGRLEPLFRAKVMLFIPNSEDRLRAATETGNDADAGVAQWVFDNQQPAGLGTNTLPSNAALYVPLKAPMRVRGVIALLPEDAVHPFLPEQQRLLETCAAQIALALERVHYVEVAQDAIV | failed
6 | MNAPGLAIEGLGVAYGARTVIAGLSLGPLPHGTLTALLGPNGSGKSTLLKAVAGLLPARGGAIALDGQRLDQADLAQRAQQVAYLPQGLPADVHLRVFESVLVAARAHGGEAAGQIGPPAIAALLERLGIGHLALQFLDELSGGQKQLVGLAQALIRRPRVLLLDEPLSALDPNYQFHVMDLLRQETRDHGLITIAALHDINIALRHADQALLIRAGELAAAGEPAAVIDAPMLARVYGIQARVERCSRGHPHVLVDGVAGPVR | failed
7 | MEESSAAKIQLLKEFKFEKILKDDTKSKIITLYGKIRNEVALLLLEKTAFDLNTIKLDQLATFLQDTKLVENNDVFHWFLSTNFQDCSTLPSVKSTLIWPASETHVYKYSSQKKPMVCETPLMYLKVTKPFIETQRGPQIQWVENILTHKAEAERIVVEDPDPLNGFIVIPDLKWDRQTMSALNLMAIVHATDIASIRDLKYKHIPLLENIRNKVLTEVPKQFSVDKNQLKMFVHYLPSYYHLHVHILHVDHETGDGSAVGRAILLDDVIDRLRNSPDGLENVNITFNIGEQHFLFQPLTNMNA | not failed
8 | MVIPFARSVPLSPNTLTLLGFAVSVAAGVAFALGKPFEGGFLILFSGVFDILDGGVARAKGRITPFGGVLDSVCDRYSDGLMFLGIMAGAIYGRLSFAPFLGVEGWLWAGFALIGSFLVSYTRARAESAGCRKLSVGIAERTERMVILALGALSGFLGWALVLIAVFSHITMIQRVLRAKSILSSPSEPESQKP | failed
9 | MSSRNTLGNDEPMNQEKEGVESKDTPRTETKGVEKKHSVLVKQDWLPSDYAQYVDEKILNIGFEPDTFQRQAFYLLSRASSVFVSAHTSSGKTLVAEYAISLSQIHGTRTIYTSPIKALSNQKYHDFKQKYDDVGIITGDVQVNPAAKCLVMTTEILRNLVYRNGDLLRDTEFVVFDEVHYINDSERGVVWEECIIMIPRHINFIMLSATIPNSLEFSEWVGRTKDKTIYVISTSKRAVPLEHVIYCDWCVYSIDDGGGKRNASNFKGDLVPFSKKTRPTGKFKILDVANFVVKKKLTPAIFFCFSKRKCEDYAEILRTLNLNDTKSREEVKLFLSEATRCLSPEDRNLPQVLSMSSMVLNGVAVHHGSLLPFVKECVELLFSMNLVKLLIATETFAMGVNMPAKCCVFLSLSKIDGGVFRYISSGEYIQMSGRAGRRGMDAVGTVMIADPKMPSLSTIQGIIHGTPFSLSSQFRLSFGLILISLRSNIRVEDLMRRSYGEHRSQRNYERDMKKLSELESVEEDVCNVCGDLSKYIGAVEEICARNWKLIAKHHVLKEGSRVLLKNNAVGTVERVSGATVFLKQKDEALDNGTPIPTKFLAYPLGTRKPLDRSKVTFENIFCVLDGEKALWNYETANVMDVLEIRKIKSLYDYLLSEQQVCREFDQHYSNALRVHCKRKEMNDIKIRYNVCSLGMIDEYNRRMEFLKKKGFVEEMITIKGRAAAEIHTVNEVLVVEMIFSNEFRQMDGRKIVSLMSSMIHEEADGQELGKALYDECKRMDECFRELSRDLDELMIPPFTPLNFSLVDAVYDWCNGSSLGKIVSRYNVLEGTFVRLVLRLEECCRELISVSTMIGDKSLEEKIGDASASMKRDIIFLPSLYL | failed
10 | VYGSEVESKIIEFTIVGADEIIAEKLGISVGDFVYKIIRLRIIHSIPTIMEHTWMPISVIPGVEVSVLEESIYSHIQNKLGLQVGTSVVRVKGIRPDDKEKQFMNLTNQDFLMRVEQVAYLTDGRTFEYSYADHLPETFEFETVITAKSYKEA | not failed
11 | EPVQLTVPQMLAQLQGTDTSLRYYAAWWLGKFGLETATAAERQAIVSALIAALADEADRTELGGYPLRRNAARALGKLGDRQAVPALIECLRCEDFYVREAAAIALGQLGDPRAIAPLQSLLEGGVAMARLVPGRPHLVQPVEAVIESLGHLGATEAIALIEPFLAHEMPRVQFAAARALFQLTGDAVYGDRLLAALNSEDVQLRRTALLDLGAMGYLPAAEAILQAGVEASFKLIALHGILGQQLRQAAPAEQTLSLFQGLDQLL | failed
12 | MIGLSFVSLLTIVCAALGCAVLTWALMPLLIRYALARPNARSSHKVPTPQGAGIAVVAATLAVTALAVGPTTPAFLGLIPLFVAAIVIGIVGAVDDIRPIPVLPRFALQALCVGAVVLTLPSDQQIIPALPLWLERAALLIGGLWFINLVNFMDGLDWMTVAEGLPVTAALLVFGLLGALTQSPMLLAAALGGALLGFAPFNRPGAARVFLGDVGSLPIGLLLGWCLLQLALQGHVAATLLLPLYYLADSTLTLLRRMMRREPFWLAHRSHFYQRATDNGFSVREVVGLVCLTNLALAALAGVSIALNSVAADGLLLAVGAAIVAALLMRFADRKA | failed
13 | MSLGELNVATVTRRPEILLVDSQEVILQRLQQLLSPLPYTLHFARDATQALQLLASREVDLVISAAHLPQMDGPTLLARIHQQYPSTTRILLTGDPDLKLIAKAINEGEIYRYLSKPWDDQELLLALRQALEHQHSERERLRLQDEGHHHHHH | not failed
14 | MKQWLAAMETSVLVMGALRLFSGSAEIFAALLMLYVNDAKKALFINGMLAFVGPTVLILTMTIGIASVASEISFLKLFFLALGICCIFIALLK | failed
15 | MTMKETFTLVATAAAGLEAVVGRELRELGYETQVENGKVRFQGDVRAIAETNLWLRAADRIKIVVGEFPARTFEELFQGVFALDWENYLPLGAKFPISKAKCVKSKLRNEPSVQAISKKAVVKKLQKYFHRPEGVPLQETGAEFKIEVSILKDKATVLIDTTGASLFKRGYRTDKGGAPIKENMAAAILELSNWYPDKPLIDPTCGSGTFCIEAAMIGMNIAPGFNRDFAFEAWNWVGKDLVQSVRDEADSKANYDVALDIMGCDIDSRMVEIAKANAREAGLEDVVKFKQMRLQDLKTDKINGVIISNPPYGERLLDDKAVDILYNEMGQTFAPLKTWSKFILTSDEQFESKYGMKADKKRKLYNGTLRVDLYQYFGERVRRSEARKVN | failed
16 | MFKDGSLIPYLTAGDPDKQSTLNFLLALDEYAGAIELGIPFSDPIADGKTIQESHYRALKNGFKLREAFWIVKEFRRHSSTPIVLMTYYNPIYRAGVRNFLAEAKASGVDGILVVDLPVFHAKEFTEIAREEGIKTVFLAAPNTPAERLKVIDDMTTGFVYLVSLYGTTGAREEIPKTAYDLLRRAKRICRNKVAVGFGVSKREHVVSLLKEGANGVVVGSALVKIIGEKGREATEFLKKKVEELLGI | not failed
17 | MSVGRIHSFETCGTVDGPGIRFIVFLQGCLMRCMYCHNRDTWDTHDGKEVTVAELIEEAKSYRHFMKASGGGITCSGGEAMLQPEFVRDFFRAAQAEGIHTCLDTNGYIRKHTDVIDEVLEASDLVMLDLKQMKDDVHKEFIGVSNTRVLDFARYLHKIGQKTWIRYVIVPGYTDDEESAHLLGNFIKDMDNIEKIELLPYHKLGAHKWEALGHDYPLEGVNPPSKETMEKMVEILSQYHNNVKY | failed
18 | MPHLFYGTAQNGEVIFDEREAHHMRVVRLKEGDVIEATDGNGFSYTCILKSLKKKTAAAKIVKVEEKEKEPTEKLSVVVPIGRWERTRFLIEKCVELGVDEIFFHKFERSQHEISLDKAKIVVREAAKQCKRYLFPKVSFLEKLEFSGNVITLDLDASQNLLDANLEGSITVVVGPEGGFSEKERELLRSSTTIVSLGKKILRFETAAILTVGYIALKKQKI | not failed
19 | MKLYKLLILDIDGTLRDEVYGIPESAKHAIRLCQKNHCSVVICTGRSMGTIQDDVLSLGVDGYIAGGGNYIQYHGELLYNQSFNQRLIKEVVCLLKKREVAFSIESQEKVFMNQKAKEIFETMNQLKGTNSCINKQHIQEKITYENNIEEYKSQDIHKICLWSNEKVFDEVKDILQDKMELAQRDISSQYYEIIQKDFHKGKAIKRLQERLGVTQKETICFGDGQNDIVMFQASDVTIAMKNSHQQLKDIATSICEDIFDNGIYKELKRRNII | not failed
20 | MSSAQVNGISKRLIVESPNVKLEDGVLESRFTYRKNHFEHRADGLHVTPKEHDYSFKTVLKPRKTGLLLVGLGGNNGSTAVGSIFANQYAMTWRTKEGHSQANYFGSVTQTATVHLGYDSATQNQIFVPFKDIVPILSPNDLIISGWDISDSNLYEAMGRAKVFEPELQEKLRPFMEPIVPLPSIYYPDFIASNQGDRANNVIPGDNKLEHLEHIRADIRKFKQEHELECVIVLWTANTERYTDVRQGLNATADEIMESIRVNEDEVSPSNIFAVASILEGAHYINGSPQNTLVPGLIELAERHKVFVGGDDFKSGQTKFKSAFVDFLVSSGMKPESIVSYNHLGNNDGKNLSEARQFRSKEISKSSVVDDMVKSNQILFPDAKNPDYCVVIKYVPYVADSKRAMDEYICSIFMGGKQTFVVHNTCEDSLLASPLIYDLAILTELASRVSYKVDDEYKPFHSVLSILSLLLKAPVVPPGTPISNAFMRQFSTLTKLVTALAGFPSDTDMQIEFFTQLPAAKSKSQ | not failed
